Results on 10 variants are retold here after FireProtDB (doi:10.1016/0022-2836(91)90566-o).

B1: DNA-Binding protein, P69542 (parent)
chain: MIKVEIKPSQAQFTTRSGVSRQGKPYSLNEQLCYVDLGNEYPVLVKITLDEGQPAYAPGLYTVHLSSFKVGQFGSLMIDRLRLVPAK

Variants of B1 are the subject of this series. To be noted: Enterobacteria phage fd; pH 7; 25 °C; GdnHCl; CD; MOPS 50 mM; NaCl 100 mM; reversible: yes; structure 1VQB; whole UniProt chain shown.

With K69M, the “ddG of mutation (higher = less stable)” value is -0.2 kcal/mol, the denaturant m value came to 3.1 kcal/mol/M, the “denaturant midpoint (higher = more stable)” value (“denaturant midpoint” below) is 2.7 M and the unfolding free energy is 9.2 kcal/mol.

Regarding D36N, the “ddG of mutation (higher = less stable)” value was found to be 1 kcal/mol, the denaturant m value was 4.2 kcal/mol/M, the “denaturant midpoint” value stood at 2.2 M and the unfolding free energy was 8 kcal/mol.

With D36C, the “ddG of mutation (higher = less stable)” value is 2 kcal/mol, the denaturant m value turned out to be 3.5 kcal/mol/M, the “denaturant midpoint” value is 2 M and the unfolding free energy was 7 kcal/mol.

E30M: the “ddG of mutation (higher = less stable)” value is -0.7 kcal/mol, the denaturant m value turned out to be 3.7 kcal/mol/M, the “denaturant midpoint” value is 2.78 M and the unfolding free energy stood at 9.7 kcal/mol.

Consider V70C, for which the “ddG of mutation (higher = less stable)” value is 3.1 kcal/mol, the denaturant m value is 4.4 kcal/mol/M, the “denaturant midpoint” value was 1.7 M and the unfolding free energy stood at 5.9 kcal/mol.

Take V70P: the “ddG of mutation (higher = less stable)” value amounted to 5 kcal/mol, the denaturant m value is 4.4 kcal/mol/M, the “denaturant midpoint” value was 1.3 M and the unfolding free energy was 4 kcal/mol.

As to I47T, the “ddG of mutation (higher = less stable)” value is 7.4 kcal/mol, the denaturant m value turned out to be 4.9 kcal/mol/M, the “denaturant midpoint” value stood at 0.9 M and the unfolding free energy came out at 1.6 kcal/mol.

On to D50H, for which the “ddG of mutation (higher = less stable)” value stood at 1.5 kcal/mol, the denaturant m value was 3.8 kcal/mol/M, the “denaturant midpoint” value was found to be 2.1 M and the unfolding free energy turned out to be 7.5 kcal/mol.

Turning to F68L, the “ddG of mutation (higher = less stable)” value was 4.2 kcal/mol, the denaturant m value was 3.4 kcal/mol/M, the “denaturant midpoint” value worked out at 1.4 M and the unfolding free energy is 4.8 kcal/mol.

Regarding C33S, the “ddG of mutation (higher = less stable)” value is 4.2 kcal/mol, the denaturant m value is 4 kcal/mol/M, the “denaturant midpoint” value was determined as 1.4 M and the unfolding free energy came to 4.8 kcal/mol.
